PMC10279719 (Nature Communications, 2023)

Columns and labels:
Grb2^FL = molecular target: T1, Grb2^FL (Homo sapiens, UniProt P62993); assay: SPR, Grb2 FL binding to immobilised PEAK proteins; details: interactor as analyte over biotinylated PEAK protein (biotin CAPture); Biacore 8K+, HBS-TP with 500 mM NaCl, 20 °C; steady-state fit; mean ± SD (N = 2) or S.E.M. (N = 3)
T1 construct: Grb2^FL; UniProt P62993-1, residues 1–217; 8-His tag with TEV protease cleavage site (N); made in house; host or cells: E. coli C41 (DE3)
Description: (§1) SPR binding studies of PEAK PRM peptides to CrkII^NSH3 were performed using a Biacore S200 Instrument (Cytiva). Purified CrkII^NSH3 was diluted to 5 µg ml^−1 in 10 mM sodium acetate pH 4.0 and amine coupled at 25 °C to a Series S CM5 sensor chip, in HBS-N running buffer (20 mM HEPES pH 7.4, 150 mM NaCl) to a final immobilization level of 1100–1400 response units (RU), followed by surface deactivation using 1 M ethanolamine. A blank activation/deactivation was used for the reference surface. Peptide binding studies were performed at 20 °C in HBS-TP running buffer (20 mM HEPES pH 7.4, 150 mM NaCl, 1 mM TCEP, 0.005% (v/v) Tween-P20). […] Peptide stocks were further diluted to in running buffer to 10 or 20 µM and prepared as a 11-point concentration series (2-fold serial dilution, […] for PEAK PRM peptides, or 20 µM–20 nM for PEAK tandem motif peptides). Samples were injected in a multi-cycle run (flow rate 30 µl min^−1, contact time of 60 s, dissociation 120 s) without regeneration. Sensorgrams were double referenced, and steady-state binding data fitted using a 1:1 binding model using Biacore S200 Evaluation Software (Cytiva, v. 1.1).
(§2) SPR binding studies of PEAK proteins to full length CrkII/Grb2 and sub-domains were performed using a Biacore 8K+ Instrument (Cytiva) and analyzed using Biacore Insight Evaluation Software (v. 3.0.12.15655). […]

CrkII^SH2 = molecular target: T2, CrkII^SH2 (Homo sapiens, UniProt P46108); assay: SPR, CrkII SH2 binding to immobilised PEAK proteins; details: interactor as analyte over biotinylated PEAK protein (biotin CAPture); Biacore 8K+, HBS-TP with 500 mM NaCl, 20 °C; steady-state fit; mean ± S.E.M. (N = 3)
T2 construct: CrkII^SH2; UniProt P46108-1, residues 6–120; 8-His tag with TEV protease cleavage site (N); made in house; host or cells: E. coli C41 (DE3)
Description: as §1, §2

CrkII^NSH3 = molecular target: T3, CrkII^NSH3 (Homo sapiens, UniProt P46108); assay: SPR, CrkII NSH3 binding to immobilised PEAK proteins; details: read-out: CrkII NSH3 SPR KD; interactor as analyte over biotinylated PEAK protein captured with biotin CAPture kit; Biacore 8K+, HBS-TP, 20 °C; steady-state fit; mean ± SD (N = 2); read-out: CrkII-SH2 SPR KD
T3 construct: CrkII^NSH3; UniProt P46108-1, residues 134–191; 8-His tag with TEV protease cleavage site (N); made in house; host or cells: E. coli C41 (DE3)
Description: as §1
(§3) SPR binding studies of PEAK proteins to full length CrkII/Grb2 and sub-domains were performed using a Biacore 8K+ Instrument (Cytiva) and analyzed using Biacore Insight Evaluation Software (v. 3.0.12.15655). […] Binding studies and steady-state data analysis were performed as described for CrkII^NSH3 with the inclusion of an additional surface regeneration step (60 s injection of 1 M NaCl) between cycles.

CrkII^FL monomer = molecular target: T4, CrkII^FL monomer (Homo sapiens, UniProt P46108); assay: SPR, CrkII FL monomer binding to immobilised PEAK proteins; details: interactor as analyte over biotinylated PEAK protein (biotin CAPture); Biacore 8K+, HBS-TP with 500 mM NaCl, 20 °C; steady-state fit; mean ± SD (N = 2)
T4 construct: full length CrkII (CrkII^FL; UniProt P46108-1, residues 1–330); 8-His tag with TEV protease cleavage site (N); made in house; host or cells: E. coli C41 (DE3)
Description: as §1, §3

14-3-3ɣ = assay: SPR, 14-3-3ɣ binding to immobilised PEAK proteins; parameters: species or system human; details: 14-3-3ɣ analyte 0.46–1000 nM, multi-cycle, over immobilised biotinylated PEAK protein; Biacore 8K+, 20 °C; KD only an estimate (bivalent analyte model); N = 3
Description: PEAK proteins and adapters proteins (full length or individual domains) were biotinylated using EZ-Link™ NHS-PEG4-Biotin (Thermo Fisher) at a 1:1 molar ratio (100 µM) for 1 h at room temperature, then excess biotin was removed by buffer exchange using a Zeba™ Spin Desalting Column (Thermo Fisher) into HBS-T buffer (20 mM HEPES pH 7.4, 150 mM NaCl, 1 mM TCEP).
SPR binding studies of PEAK proteins to full length CrkII/Grb2 and sub-domains were performed using a Biacore 8K+ Instrument (Cytiva) and analyzed using Biacore Insight Evaluation Software (v. 3.0.12.15655). […] Biotinylated PEAK proteins (with or without Src phosphorylation; 500 nM in HBS-TP) were immobilized using a biotin CAPture kit (Cytiva) in HBS-TP running buffer at 20 °C. Binding studies and steady-state data analysis were performed as described for CrkII^NSH3 with the inclusion of an additional surface regeneration step (60 s injection of 1 M NaCl) between cycles. For Grb2^FL, Grb2^SH2, CrkII^SH2, CrkII^FL monomer and CrkII^FL dimer, to reduce nonspecific interactions the HBS-TP running buffer was supplemented with additional NaCl to a final concentration of 500 mM.
Binding studies for 14-3-3ɣ were undertaken in the same way in multi cycle mode (8 point, 3-fold serial dilution series, 0.46–1000 nM, 60 s contact time, 300 s dissociation).

CrkII^FL dimer = molecular target: T5, CrkII^FL dimer (Homo sapiens, UniProt P46108); assay: SPR, CrkII FL dimer binding to immobilised PEAK proteins; details: interactor as analyte over biotinylated PEAK protein (biotin CAPture); Biacore 8K+, HBS-TP with 500 mM NaCl, 20 °C; steady-state fit; mean ± SD (N = 2)
T5 construct: full length CrkII (CrkII^FL; UniProt P46108-1, residues 1–330); 8-His tag with TEV protease cleavage site (N); made in house; host or cells: E. coli C41 (DE3)
Description: as §1, §3

Grb2^SH2 = Grb2^SH2 (Homo sapiens, UniProt P62993); assay: SPR, Grb2 SH2 binding to immobilised PEAK proteins; details: interactor as analyte over biotinylated PEAK protein (biotin CAPture); Biacore 8K+, HBS-TP with 500 mM NaCl, 20 °C; steady-state fit; mean ± S.E.M. (N = 3)
Description: as §1, §2

T4 sequence (P46108 whole entry, the tested form may be a part): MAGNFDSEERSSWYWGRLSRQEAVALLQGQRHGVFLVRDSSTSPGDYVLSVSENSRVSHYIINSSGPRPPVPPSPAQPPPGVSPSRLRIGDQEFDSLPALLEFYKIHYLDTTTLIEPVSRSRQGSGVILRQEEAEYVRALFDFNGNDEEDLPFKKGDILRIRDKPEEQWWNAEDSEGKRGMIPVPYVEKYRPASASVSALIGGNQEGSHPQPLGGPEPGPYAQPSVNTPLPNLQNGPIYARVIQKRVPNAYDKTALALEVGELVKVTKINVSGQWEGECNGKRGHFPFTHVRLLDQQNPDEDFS
T5 sequence (P46108 whole entry, the tested form may be a part): as above
T3 sequence (P46108 134-191): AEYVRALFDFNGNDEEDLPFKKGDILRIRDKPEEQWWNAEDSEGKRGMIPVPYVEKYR
T2 sequence (P46108 6-120): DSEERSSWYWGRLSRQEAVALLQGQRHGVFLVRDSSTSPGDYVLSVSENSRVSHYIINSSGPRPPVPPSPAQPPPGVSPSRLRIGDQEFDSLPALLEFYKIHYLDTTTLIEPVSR
Grb2^SH2, sequence (P62993 60-152 limits assumed): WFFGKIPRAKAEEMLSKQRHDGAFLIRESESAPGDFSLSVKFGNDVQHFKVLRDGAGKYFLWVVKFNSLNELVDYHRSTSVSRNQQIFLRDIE
T1 sequence (P62993 whole entry, the tested form may be a part): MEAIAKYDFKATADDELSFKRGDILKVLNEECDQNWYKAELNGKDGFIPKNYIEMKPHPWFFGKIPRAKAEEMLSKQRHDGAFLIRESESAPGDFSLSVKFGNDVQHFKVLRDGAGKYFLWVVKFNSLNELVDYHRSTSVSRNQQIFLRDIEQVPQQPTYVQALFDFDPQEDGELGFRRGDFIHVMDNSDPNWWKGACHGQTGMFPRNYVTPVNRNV

Row | Molecule | Kd (Grb2^FL) | SPR KD, CrkII-SH2 (CrkII^SH2) | Kd (CrkII^NSH3) | Kd (CrkII^FL monomer) | SPR KD, 14-3-3ɣ (14-3-3ɣ) | Kd (CrkII^FL dimer) | SPR KD, Grb2 SH2 (Grb2^SH2)
1 | PEAK1-IDR1: recombinant human PEAK1 residues 1082–1746, insect cell expressed (protein, left off: His tag, N-terminal, state not stated, recombinant human PEAK1 residues 1082–1746, insect cell expressed) LPELEREDGKEDISDPMDPNPCSATYSNLGQSRAAMIPPKQPRQPKGAVDDAIAFGGKTDQEAPNASQPTPPPLPKKMIIRANTEPISKDLQKSMESSLCVMANPTYDIDPNWDASSAGSSISYELKGLDIESYDSLERPLRKERPVPSAANSISSLTTLSIKDRFSNSMESLSSRRGPSCRQGRGIQKPQRQALYRGLENREEVVGKIRSLHTDALKKLAVKCEDLFMAGQKDQLRFGVDSWSDFRLTSDKPCCEAGDAVYYTASYAKDPLNNYAVKICKSKAKESQQYYHSLAVRQSLAVHFNIQQDCGHFLAEVPNRLLPWEDPDDPEKDEDDMEETEEDAKGETDGKNPKPCSEAASSQKENQGVMSKKQRSHVVVITREVPCLTVADFVRDSLAQHGKSPDLYERQVCLLLLQLCSGLEHLKPYHVTHCDLRLENLLLVHYQPGGTAQGFGPAEPSPTSSYPTRLIVSNFSQAKQKSHLVDPEILRDQSRLAPEIITATQYKKCDEFQTGILIYEMLHLPNPFDENPELKEREYTRADLPRIPFRSPYSRGLQQLASCLLNPNPSERILISDAKGILQCLLWGPREDLFQTFTACPSLVQRNTLLQNWLDIKRTLLMIKFAEKSLDREGGISLEDWLCAQYLAFATTDSLSCIVKILQHR | > 50 µM | No binding | 3.7 µM | 9.2 µM | No binding | 2.03 µM | No binding
2 | PEAK1-IDR1 (+ Src phosphorylation): PEAK1 residues 1082–1746 phosphorylated with recombinant Src kinase (protein, phosphotyrosine at Y1107 (by Src in vitro, shown by MS/MS); other Src sites not stated; biotin (EZ-Link NHS-PEG4-Biotin, 1:1 molar ratio); left off: His-tag, N-terminal, state not stated, PEAK1 residues 1082–1746 phosphorylated with recombinant Src kinase) LPELEREDGKEDISDPMDPNPCSATYSNLGQSRAAMIPPKQPRQPKGAVDDAIAFGGKTDQEAPNASQPTPPPLPKKMIIRANTEPISKDLQKSMESSLCVMANPTYDIDPNWDASSAGSSISYELKGLDIESYDSLERPLRKERPVPSAANSISSLTTLSIKDRFSNSMESLSSRRGPSCRQGRGIQKPQRQALYRGLENREEVVGKIRSLHTDALKKLAVKCEDLFMAGQKDQLRFGVDSWSDFRLTSDKPCCEAGDAVYYTASYAKDPLNNYAVKICKSKAKESQQYYHSLAVRQSLAVHFNIQQDCGHFLAEVPNRLLPWEDPDDPEKDEDDMEETEEDAKGETDGKNPKPCSEAASSQKENQGVMSKKQRSHVVVITREVPCLTVADFVRDSLAQHGKSPDLYERQVCLLLLQLCSGLEHLKPYHVTHCDLRLENLLLVHYQPGGTAQGFGPAEPSPTSSYPTRLIVSNFSQAKQKSHLVDPEILRDQSRLAPEIITATQYKKCDEFQTGILIYEMLHLPNPFDENPELKEREYTRADLPRIPFRSPYSRGLQQLASCLLNPNPSERILISDAKGILQCLLWGPREDLFQTFTACPSLVQRNTLLQNWLDIKRTLLMIKFAEKSLDREGGISLEDWLCAQYLAFATTDSLSCIVKILQHR | – | – | 4.11 µM | 1.5 µM | No binding | 1.49 µM | –
3 | PEAK2-IDR1: recombinant human PEAK2 residues 802–1406, insect cell expressed (protein, phosphorylated at the tandem site 14-3-3 motif (RAASSP) by LC MS/MS; left off: His tag, N-terminal, state not stated, recombinant human PEAK2 residues 802–1406, insect cell expressed) EDVSPSGPQQPPPLPQKKIVSRAASSPDGFFWTQGSPKPGTASPKLNLSHSETNVHDESHFSYSLSPGNRHHPVFSSSDPLEKAFKGSGHWLPAAGLAGNRGGCGSPGLQCKGAPSASSSQLSVSSQASTGSTQLQLHGLLSNISSKEGTYAKLGGLYTQSLARLVAKCEDLFMGGQKKELHFNENNWSLFKLTCNKPCCDSGDAIYYCATCSEDPGSTYAVKICKAPEPKTVSYCSPSVPVHFNIQQDCGHFVASVPSSMLSSPDAPKDPVPALPTHPPAQEQDCVVVITREVPHQTASDFVRDSAASHQAEPEAYERRVCFLLLQLCNGLEHLKEHGIIHRDLCLENLLLVHCTLQAGPGPAPAPAPAPAPAAAAPPCSSAAPPAGGTLSPAAGPASPEGPREKQLPRLIISNFLKAKQKPGGTPNLQQKKSQARLAPEIVSASQYRKFDEFQTGILIYELLHQPNPFEVRAQLRERDYRQEDLPPLPALSLYSPGLQQLAHLLLEADPIKRIRIGEAKRVLQCLLWGPRRELVQQPGTSEEALCGTLHNWIDMKRALMMMKFAEKAVDRRRGVELEDWLCCQYLASAEPGALLQSLKLLQLL | – | No binding | 4.79 µM | 13.7 µM | No binding | 4.22 µM | –
4 | PEAK2-IDR1 (+ Src phosphorylation): PEAK2 residues 802–1406 phosphorylated with recombinant Src kinase (protein, phosphorylated with Src kinase, sites not stated; phosphorylation of the tandem site 14-3-3 motif (RAASSP) found by proteomic analysis; biotin (EZ-Link NHS-PEG4-Biotin, 1:1 molar ratio); left off: His, PEAK2 residues 802–1406 phosphorylated with recombinant Src kinase) EDVSPSGPQQPPPLPQKKIVSRAASSPDGFFWTQGSPKPGTASPKLNLSHSETNVHDESHFSYSLSPGNRHHPVFSSSDPLEKAFKGSGHWLPAAGLAGNRGGCGSPGLQCKGAPSASSSQLSVSSQASTGSTQLQLHGLLSNISSKEGTYAKLGGLYTQSLARLVAKCEDLFMGGQKKELHFNENNWSLFKLTCNKPCCDSGDAIYYCATCSEDPGSTYAVKICKAPEPKTVSYCSPSVPVHFNIQQDCGHFVASVPSSMLSSPDAPKDPVPALPTHPPAQEQDCVVVITREVPHQTASDFVRDSAASHQAEPEAYERRVCFLLLQLCNGLEHLKEHGIIHRDLCLENLLLVHCTLQAGPGPAPAPAPAPAPAAAAPPCSSAAPPAGGTLSPAAGPASPEGPREKQLPRLIISNFLKAKQKPGGTPNLQQKKSQARLAPEIVSASQYRKFDEFQTGILIYELLHQPNPFEVRAQLRERDYRQEDLPPLPALSLYSPGLQQLAHLLLEADPIKRIRIGEAKRVLQCLLWGPRRELVQQPGTSEEALCGTLHNWIDMKRALMMMKFAEKAVDRRRGVELEDWLCCQYLASAEPGALLQSLKLLQLL | – | – | 5.2 µM | 2.12 µM | No binding | 1.38 µM | –
